Reference: patent publication US6790444

Experiments:
human lymphotoxin (TNFβ) = molecular target: T1, human lymphotoxin (TNFβ) (human, UniProt P01374 35-205, limits assumed); assay: cell-based or functional assay
T1 sequence (looked up): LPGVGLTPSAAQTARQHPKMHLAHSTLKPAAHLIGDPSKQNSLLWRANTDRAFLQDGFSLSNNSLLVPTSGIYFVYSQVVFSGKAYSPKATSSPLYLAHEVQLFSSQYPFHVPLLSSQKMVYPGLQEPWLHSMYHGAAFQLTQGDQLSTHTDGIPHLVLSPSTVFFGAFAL

[1] = molecular target: human tumor necrosis factor-α (TNFα) (human) (UniProt P01375); assay: cell-based or functional assay
human tumor necrosis factor-α (TNFα) (human), sequence (P01375 77-233): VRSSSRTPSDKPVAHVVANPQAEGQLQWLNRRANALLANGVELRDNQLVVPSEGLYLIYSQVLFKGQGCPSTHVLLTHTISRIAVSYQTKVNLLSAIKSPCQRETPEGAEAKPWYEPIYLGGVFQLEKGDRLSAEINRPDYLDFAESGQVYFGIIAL

p55-sf2 (p55 TNF receptor / IgG1 heavy chain single fusion with truncated light chain JCK) (from UniProt P19438 32-188) (Fc fusion)
amount needed for the same degree of inhibition of TNFβ cytotoxicity, against p75P-sf2 (human lymphotoxin (TNFβ)): 3 fold

B1: chimeric mouse/human IgG1 anti-platelet mAb (7E3) (antibody, INN chains, looked up, V domains shown)
VH: EVQLQQSGTVLARPGASVKMSCEASGYTFTNYWMHWVKQRPGQGLEWIGAIYPGNSDTSYIQKFKGKAKLTAVTSTTSVYMELSSLTNEDSAVYYCTLYDGYYVFAYWGQGTLVTVSA
VL: EIVLTQSPVTLSVTPGDSVSLSCRASRDISNNLHWFQQTSHESPRLLIKYASQSMSGIPSRFSGSGSGTDFTLSINSVETEDFGMYFCQQTNSWPYTFGGGTKLEIK
modifications: chimeric IgG1
IL-6 secreted by FS-4 fibroblasts; 0.3 ng/ml rhTNF, 4 µg/ml antibody [1]: 1.6 ng/mL
IL-6 secreted by FS-4 fibroblasts; 1.5 ng/ml rhTNF, 4 µg/ml antibody [1]: 1.96 ng/mL
IL-6 secreted by FS-4 fibroblasts; 7.5 ng/ml rhTNF, 4 µg/ml antibody [1]: 2.16 ng/mL

B2: p75-sf2 (complete p75 extracellular domain fused to the IgG1 heavy chain) (Fc fusion)
chain: QLPAQVAFTPYAPEPGSTCRLREYYDQTAQMCCSKCSPGQHAKVFCTKTSDTVCDSCEDSTYTQLWNWVPECLSCGSRCSSDQVETQACTREQNRICTCRPGWYCALSKQEGCRLCAPLRKCRPGFGVARPGTETSDVVCKPCAPGTFSNTTSSTDICRPHQICNVVAIPGNASMDAVCTSTSPTRSMAPGAVHLPQPVSTRSQHTQPTPEPSTAPSTSFLLPMGPSPPAEGSTGDGTLVTVSS
amount needed for the same degree of inhibition of TNFβ cytotoxicity, against p75P-sf2 (human lymphotoxin (TNFβ)): 3 fold
